Measured values: the supplement of paper PMC7877785
± gives the uncertainty stated by the source.

Assay: self-splicing fitness, log relative to wild type (ln ratio); higher = more splicing; Tetrahymena group I intron in knt gene, E. coli kanamycin selection, DiMSum; sequences stand for … in CUCUCU…GGAGGGAAAAGUUAUCAGGCAUGCACCUGGUAGCUAGUCUUUAAACCAAUAGAUUGCAUCGGUUUAAAAGGCAAGACCGUCAAAUUGCGGGAAAGGGGUCAACAGCCGUUCAGUACCAAGUCUCAGGGGAAACUUUGAGAUGGCCUUGCAAAGGGUAUGGUAAUAAGCUGACGGACAUGGUCCUAACCACGCAGCCAAGUCCUAAGUCAACAGAUCUUCUGUUGAUAUGGAUGCAGUUCACAGACUAAAUGUCGGUCGGGGAAGAUGUAUUCUUCUCAUAAGAUAUAGUCGGACCUCUCCUUAAUGGGAGCUAGCGGAUGAAGUGAUGCAACACUGGAGCCGCUGGGAACUAAUUUGUAUGCGAAAGUAUAUUGAUUAGUUUUGGAGUACUCGUGGUCG
Method in brief: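 Colonies from six replicate transformations of E. coli BL21(DE3) were pooled and amplicon-sequenced on an Illumina HiSeq 2500. The library placed an intron with all eight P1ex-region nucleotides randomised inside the knt kanamycin-resistance gene on pET-22b(+), and cells grew overnight at 37°C or 30°C on LB agar with or without 25 μg/mL kanamycin (plus 100 μg/mL carbenicillin, 50 μM IPTG, 0.2% rhamnose). Fitness is the DiMSum error-weighted combination of wild-type-normalised replicate fold changes, kanamycin versus none.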

Sequence	self-splicing fitness (ln) (30 °C)	self-splicing fitness (ln) (37 °C)
GAACAGCAAUAUUACGUAAU	-0.976 ± 0.065	-0.107 ± 0.09
GAACAGCAAUAUUACGUCGC	-1.61 ± 0.11	-0.68 ± 0.12
GAACAGCAAUAUUACGUGAU	-0.746 ± 0.058	-0.432 ± 0.075
GAACAGCAAUAUUACGUGCA	-1.09 ± 0.065	0.0769 ± 0.089
GAACAGCAAUAUUACGUGCG	-0.551 ± 0.065	-0.41 ± 0.074
GAACAGCAAUAUUACGUGGA	-2.32 ± 0.1	-1.95 ± 0.094
GAACAGCAAUAUUACGUGGG	-3.42 ± 0.11	-1.9 ± 0.091
GAACAGCAAUAUUACGUGUU	-3.97 ± 0.17	-2.61 ± 0.16
GAAGAGCAAUAUUACGAACU	-1.43 ± 0.15	-0.479 ± 0.17
GAAGAGCAAUAUUACGAAGA	-2.62 ± 0.26	-2.48 ± 0.24
GAAGAGCAAUAUUACGACGU	-0.922 ± 0.16	-0.536 ± 0.18
GAAGAGCAAUAUUACGAGCA	–	-1.33 ± 0.33
GAAGAGCAAUAUUACGAUCA	-2.36 ± 0.21	-1.01 ± 0.19
GAAGAGCAAUAUUACGCAUA	-3.1 ± 0.19	-2.62 ± 0.22
GAAGAGCAAUAUUACGCCUU	-2.52 ± 0.37	-1.55 ± 0.33
GAAGAGCAAUAUUACGCGCC	-3.56 ± 0.47	-1.43 ± 0.26
GAAGAGCAAUAUUACGGAAA	-2.81 ± 0.14	-2.93 ± 0.22
GAAGAGCAAUAUUACGGCUG	-2.1 ± 0.16	-1.22 ± 0.18
GAAGAGCAAUAUUACGGGCU	-3.17 ± 0.17	-3.07 ± 0.28
GAAGAGCAAUAUUACGGGUG	-3.28 ± 0.15	-2.01 ± 0.17
GAAGAGCAAUAUUACGGUAU	-3.7 ± 0.23	-2.46 ± 0.31
GAAGAGCAAUAUUACGGUCU	-2.52 ± 0.26	-0.469 ± 0.24
GAAGAGCAAUAUUACGUAUU	-3.86 ± 0.28	-1.04 ± 0.13
GAAGAGCAAUAUUACGUCCG	-3.48 ± 0.39	–
GAAGAGCAAUAUUACGUCUG	-2.34 ± 0.14	-1.76 ± 0.16

Sequence	self-splicing fitness (ln) (30 °C)	self-splicing fitness (ln) (37 °C)
GAAUAGCAAUAUUACGACUC	-0.601 ± 0.13	-1.34 ± 0.18
GAAUAGCAAUAUUACGACUG	0.089 ± 0.15	-1.43 ± 0.17
GAAUAGCAAUAUUACGACUU	0.269 ± 0.073	0.548 ± 0.092
GAAUAGCAAUAUUACGAUUA	-0.73 ± 0.093	0.156 ± 0.11
GAAUAGCAAUAUUACGCAGU	-2.57 ± 0.15	-0.857 ± 0.12
GAAUAGCAAUAUUACGCCCU	-0.167 ± 0.19	0.00214 ± 0.21
GAAUAGCAAUAUUACGCCUG	-0.487 ± 0.14	-0.504 ± 0.16
GAAUAGCAAUAUUACGCGGC	-1.42 ± 0.19	-2.38 ± 0.3
GAAUAGCAAUAUUACGCGGG	–	-0.0263 ± 0.25
GAAUAGCAAUAUUACGCUUG	-0.781 ± 0.11	-0.818 ± 0.14
GAAUAGCAAUAUUACGGCGG	-2.65 ± 0.18	-0.799 ± 0.13
GAAUAGCAAUAUUACGGUUG	-1.27 ± 0.092	-0.561 ± 0.13
GAAUAGCAAUAUUACGUAAG	-2.32 ± 0.14	-0.886 ± 0.18
GAAUAGCAAUAUUACGUACA	-1.7 ± 0.14	-0.774 ± 0.2
GAAUAGCAAUAUUACGUCCG	-1.39 ± 0.15	-1.33 ± 0.22
GAAUAGCAAUAUUACGUGCG	-1.2 ± 0.074	-0.181 ± 0.094
GAAUAGCAAUAUUACGUGCU	-2.04 ± 0.14	-0.626 ± 0.12
GAAUAGCAAUAUUACGUGGA	-3.38 ± 0.25	-1.17 ± 0.15
GAAUAGCAAUAUUACGUGGU	-3.01 ± 0.15	-2.74 ± 0.24
GAAUAGCAAUAUUACGUGUC	-3.72 ± 0.27	-2.58 ± 0.14
GAAUAGCAAUAUUACGUUAG	-3.39 ± 0.2	-1.94 ± 0.18
GAAUAGCAAUAUUACGUUUU	-3.38 ± 0.16	-0.859 ± 0.11
GACAAGCAAUAUUACGAAAU	-2.47 ± 0.14	-0.766 ± 0.14
GACAAGCAAUAUUACGAACG	-1.55 ± 0.13	-0.997 ± 0.22
